Reference: patent US20260001928A1 (CORTERIA PHARMACEUTICALS, priority 2022, published 2026)
*1 amine or outer side, *2 acyl side, *3 side chain or, on linkers, in order; H or OH if unused. Primed or numbered codes have the meaning given here. Where no end group is shown, it is not given here. Side-chain parts run from the residue outwards. [ ]: non-standard residue; d: D form. The star is where a group is joined. Thp′ = 4-amino-tetrahydro-2H-pyran-4-yl-acetic acid, O=C(CC1(N[*:1])CCOCC1)[*:2]; C18 diacid = O=C(O)CCCCCCCCCCCCCCCCC(=O)*; C16 diacid = O=C(O)CCCCCCCCCCCCCCC(=O)*; γGlu = O=C(O)[C@H](CCC(=O)[*:2])N[*:1]; Thp″ = not defined here

B1: SEQ ID NO 147 (peptide)
peptide: IVLSLD[dV]PIKLK([γGlu-γGlu-C16 diacid])QILLKQERQKKQREQAEKNKQILEQV-NH2
modifications: N-terminus assumed
SMILES: CC[C@H](C)[C@H](N)C(=O)N[C@H](C(=O)N[C@@H](CC(C)C)C(=O)N[C@@H](CO)C(=O)N[C@@H](CC(C)C)C(=O)N[C@@H](CC(=O)O)C(=O)N[C@@H](C(=O)N1CCC[C@H]1C(=O)N[C@H](C(=O)N[C@@H](CCCCN)C(=O)N[C@@H](CC(C)C)C(=O)N[C@@H](CCCCNC(=O)CC[C@H](NC(=O)CC[C@H](NC(=O)CCCCCCCCCCCCCCC(=O)O)C(=O)O)C(=O)O)C(=O)N[C@@H](CCC(N)=O)C(=O)N[C@H](C(=O)N[C@@H](CC(C)C)C(=O)N[C@@H](CC(C)C)C(=O)N[C@@H](CCCCN)C(=O)N[C@@H](CCC(N)=O)C(=O)N[C@@H](CCC(=O)O)C(=O)N[C@@H](CCCNC(=N)N)C(=O)N[C@@H](CCC(N)=O)C(=O)N[C@@H](CCCCN)C(=O)N[C@@H](CCCCN)C(=O)N[C@@H](CCC(N)=O)C(=O)N[C@@H](CCCNC(=N)N)C(=O)N[C@@H](CCC(=O)O)C(=O)N[C@@H](CCC(N)=O)C(=O)N[C@@H](C)C(=O)N[C@@H](CCC(=O)O)C(=O)N[C@@H](CCCCN)C(=O)N[C@@H](CC(N)=O)C(=O)N[C@@H](CCCCN)C(=O)N[C@@H](CCC(N)=O)C(=O)N[C@H](C(=O)N[C@@H](CC(C)C)C(=O)N[C@@H](CCC(=O)O)C(=O)N[C@@H](CCC(N)=O)C(=O)N[C@H](C(N)=O)C(C)C)[C@@H](C)CC)[C@@H](C)CC)[C@@H](C)CC)C(C)C)C(C)C
B2: SEQ ID NO 151 (peptide)
peptide: IVLSLD[dV]PIKLK([γGlu-C16 diacid])QILLKQERQKKQREQAEKNKQILEQV-NH2
modifications: N-terminus assumed
SMILES: CC[C@H](C)[C@H](N)C(=O)N[C@H](C(=O)N[C@@H](CC(C)C)C(=O)N[C@@H](CO)C(=O)N[C@@H](CC(C)C)C(=O)N[C@@H](CC(=O)O)C(=O)N[C@@H](C(=O)N1CCC[C@H]1C(=O)N[C@H](C(=O)N[C@@H](CCCCN)C(=O)N[C@@H](CC(C)C)C(=O)N[C@@H](CCCCNC(=O)CC[C@H](NC(=O)CCCCCCCCCCCCCCC(=O)O)C(=O)O)C(=O)N[C@@H](CCC(N)=O)C(=O)N[C@H](C(=O)N[C@@H](CC(C)C)C(=O)N[C@@H](CC(C)C)C(=O)N[C@@H](CCCCN)C(=O)N[C@@H](CCC(N)=O)C(=O)N[C@@H](CCC(=O)O)C(=O)N[C@@H](CCCNC(=N)N)C(=O)N[C@@H](CCC(N)=O)C(=O)N[C@@H](CCCCN)C(=O)N[C@@H](CCCCN)C(=O)N[C@@H](CCC(N)=O)C(=O)N[C@@H](CCCNC(=N)N)C(=O)N[C@@H](CCC(=O)O)C(=O)N[C@@H](CCC(N)=O)C(=O)N[C@@H](C)C(=O)N[C@@H](CCC(=O)O)C(=O)N[C@@H](CCCCN)C(=O)N[C@@H](CC(N)=O)C(=O)N[C@@H](CCCCN)C(=O)N[C@@H](CCC(N)=O)C(=O)N[C@H](C(=O)N[C@@H](CC(C)C)C(=O)N[C@@H](CCC(=O)O)C(=O)N[C@@H](CCC(N)=O)C(=O)N[C@H](C(N)=O)C(C)C)[C@@H](C)CC)[C@@H](C)CC)[C@@H](C)CC)C(C)C)C(C)C
B3: SEQ ID NO 34 (peptide)
peptide: VLSLD[dV]PIKLK([γGlu-C16 diacid])KILLEQEKQKKQREQAETNKQILAQV-NH2
modifications: N-terminus assumed
SMILES: CC[C@H](C)[C@H](NC(=O)[C@H](CCC(N)=O)NC(=O)[C@H](CCCCN)NC(=O)[C@H](CC(N)=O)NC(=O)[C@@H](NC(=O)[C@H](CCC(=O)O)NC(=O)[C@H](C)NC(=O)[C@H](CCC(N)=O)NC(=O)[C@H](CCC(=O)O)NC(=O)[C@H](CCCNC(=N)N)NC(=O)[C@H](CCC(N)=O)NC(=O)[C@H](CCCCN)NC(=O)[C@H](CCCCN)NC(=O)[C@H](CCC(N)=O)NC(=O)[C@H](CCCCN)NC(=O)[C@H](CCC(=O)O)NC(=O)[C@H](CCC(N)=O)NC(=O)[C@H](CCC(=O)O)NC(=O)[C@H](CC(C)C)NC(=O)[C@H](CC(C)C)NC(=O)[C@@H](NC(=O)[C@H](CCCCN)NC(=O)[C@H](CCCCNC(=O)CC[C@H](NC(=O)CCCCCCCCCCCCCCC(=O)O)C(=O)O)NC(=O)[C@H](CC(C)C)NC(=O)[C@H](CCCCN)NC(=O)[C@@H](NC(=O)[C@@H]1CCCN1C(=O)[C@H](NC(=O)[C@H](CC(=O)O)NC(=O)[C@H](CC(C)C)NC(=O)[C@H](CO)NC(=O)[C@H](CC(C)C)NC(=O)[C@@H](N)C(C)C)C(C)C)[C@@H](C)CC)[C@@H](C)CC)[C@@H](C)O)C(=O)N[C@@H](CC(C)C)C(=O)N[C@@H](C)C(=O)N[C@@H](CCC(N)=O)C(=O)N[C@H](C(N)=O)C(C)C
B4: SEQ ID NO 14 (peptide)
peptide: IVLSLD[dV]PIKLK([γGlu-C16 diacid])QILLKQERQKKQREQAEKNTQILEQV-NH2
modifications: N-terminus assumed
SMILES: CC[C@H](C)[C@H](N)C(=O)N[C@H](C(=O)N[C@@H](CC(C)C)C(=O)N[C@@H](CO)C(=O)N[C@@H](CC(C)C)C(=O)N[C@@H](CC(=O)O)C(=O)N[C@@H](C(=O)N1CCC[C@H]1C(=O)N[C@H](C(=O)N[C@@H](CCCCN)C(=O)N[C@@H](CC(C)C)C(=O)N[C@@H](CCCCNC(=O)CC[C@H](NC(=O)CCCCCCCCCCCCCCC(=O)O)C(=O)O)C(=O)N[C@@H](CCC(N)=O)C(=O)N[C@H](C(=O)N[C@@H](CC(C)C)C(=O)N[C@@H](CC(C)C)C(=O)N[C@@H](CCCCN)C(=O)N[C@@H](CCC(N)=O)C(=O)N[C@@H](CCC(=O)O)C(=O)N[C@@H](CCCNC(=N)N)C(=O)N[C@@H](CCC(N)=O)C(=O)N[C@@H](CCCCN)C(=O)N[C@@H](CCCCN)C(=O)N[C@@H](CCC(N)=O)C(=O)N[C@@H](CCCNC(=N)N)C(=O)N[C@@H](CCC(=O)O)C(=O)N[C@@H](CCC(N)=O)C(=O)N[C@@H](C)C(=O)N[C@@H](CCC(=O)O)C(=O)N[C@@H](CCCCN)C(=O)N[C@@H](CC(N)=O)C(=O)N[C@H](C(=O)N[C@@H](CCC(N)=O)C(=O)N[C@H](C(=O)N[C@@H](CC(C)C)C(=O)N[C@@H](CCC(=O)O)C(=O)N[C@@H](CCC(N)=O)C(=O)N[C@H](C(N)=O)C(C)C)[C@@H](C)CC)[C@@H](C)O)[C@@H](C)CC)[C@@H](C)CC)C(C)C)C(C)C
B5: SEQ ID NO 199 (peptide)
peptide: Ac-IVLSLD[dV]PIKLK([γGlu-C18 diacid])KILLEQEKQKKQREQAETN[Thp″]QILAQV-NH2
modifications: not fully specified; reading uncertain
B6: SEQ ID NO 13 (peptide)
peptide: IVLSLD[dV]PIKLK([γGlu-C16 diacid])QILLKQERQKKQREQAEKNVQILEQV-NH2
modifications: N-terminus assumed
SMILES: CC[C@H](C)[C@H](N)C(=O)N[C@H](C(=O)N[C@@H](CC(C)C)C(=O)N[C@@H](CO)C(=O)N[C@@H](CC(C)C)C(=O)N[C@@H](CC(=O)O)C(=O)N[C@@H](C(=O)N1CCC[C@H]1C(=O)N[C@H](C(=O)N[C@@H](CCCCN)C(=O)N[C@@H](CC(C)C)C(=O)N[C@@H](CCCCNC(=O)CC[C@H](NC(=O)CCCCCCCCCCCCCCC(=O)O)C(=O)O)C(=O)N[C@@H](CCC(N)=O)C(=O)N[C@H](C(=O)N[C@@H](CC(C)C)C(=O)N[C@@H](CC(C)C)C(=O)N[C@@H](CCCCN)C(=O)N[C@@H](CCC(N)=O)C(=O)N[C@@H](CCC(=O)O)C(=O)N[C@@H](CCCNC(=N)N)C(=O)N[C@@H](CCC(N)=O)C(=O)N[C@@H](CCCCN)C(=O)N[C@@H](CCCCN)C(=O)N[C@@H](CCC(N)=O)C(=O)N[C@@H](CCCNC(=N)N)C(=O)N[C@@H](CCC(=O)O)C(=O)N[C@@H](CCC(N)=O)C(=O)N[C@@H](C)C(=O)N[C@@H](CCC(=O)O)C(=O)N[C@@H](CCCCN)C(=O)N[C@@H](CC(N)=O)C(=O)N[C@H](C(=O)N[C@@H](CCC(N)=O)C(=O)N[C@H](C(=O)N[C@@H](CC(C)C)C(=O)N[C@@H](CCC(=O)O)C(=O)N[C@@H](CCC(N)=O)C(=O)N[C@H](C(N)=O)C(C)C)[C@@H](C)CC)C(C)C)[C@@H](C)CC)[C@@H](C)CC)C(C)C)C(C)C
B7: SEQ ID NO 199 (peptide)
peptide: Ac-IVLSLD[dV]PIKLK([γGlu-C18 diacid])KILLEQEKQKKQREQAETN[Thp′]QILAQV-NH2
SMILES: CC[C@H](C)[C@H](NC(C)=O)C(=O)N[C@H](C(=O)N[C@@H](CC(C)C)C(=O)N[C@@H](CO)C(=O)N[C@@H](CC(C)C)C(=O)N[C@@H](CC(=O)O)C(=O)N[C@@H](C(=O)N1CCC[C@H]1C(=O)N[C@H](C(=O)N[C@@H](CCCCN)C(=O)N[C@@H](CC(C)C)C(=O)N[C@@H](CCCCNC(=O)CC[C@H](NC(=O)CCCCCCCCCCCCCCCCC(=O)O)C(=O)O)C(=O)N[C@@H](CCCCN)C(=O)N[C@H](C(=O)N[C@@H](CC(C)C)C(=O)N[C@@H](CC(C)C)C(=O)N[C@@H](CCC(=O)O)C(=O)N[C@@H](CCC(N)=O)C(=O)N[C@@H](CCC(=O)O)C(=O)N[C@@H](CCCCN)C(=O)N[C@@H](CCC(N)=O)C(=O)N[C@@H](CCCCN)C(=O)N[C@@H](CCCCN)C(=O)N[C@@H](CCC(N)=O)C(=O)N[C@@H](CCCNC(=N)N)C(=O)N[C@@H](CCC(=O)O)C(=O)N[C@@H](CCC(N)=O)C(=O)N[C@@H](C)C(=O)N[C@@H](CCC(=O)O)C(=O)N[C@H](C(=O)N[C@@H](CC(N)=O)C(=O)NC1(CC(=O)N[C@@H](CCC(N)=O)C(=O)N[C@H](C(=O)N[C@@H](CC(C)C)C(=O)N[C@@H](C)C(=O)N[C@@H](CCC(N)=O)C(=O)N[C@H](C(N)=O)C(C)C)[C@@H](C)CC)CCOCC1)[C@@H](C)O)[C@@H](C)CC)[C@@H](C)CC)C(C)C)C(C)C

Experiments:
[1] = biological target: T1, CRF1R receptor (UniProt P34998 24-415, limits assumed); experiment: cell-based or functional assay
T1 sequence (looked up): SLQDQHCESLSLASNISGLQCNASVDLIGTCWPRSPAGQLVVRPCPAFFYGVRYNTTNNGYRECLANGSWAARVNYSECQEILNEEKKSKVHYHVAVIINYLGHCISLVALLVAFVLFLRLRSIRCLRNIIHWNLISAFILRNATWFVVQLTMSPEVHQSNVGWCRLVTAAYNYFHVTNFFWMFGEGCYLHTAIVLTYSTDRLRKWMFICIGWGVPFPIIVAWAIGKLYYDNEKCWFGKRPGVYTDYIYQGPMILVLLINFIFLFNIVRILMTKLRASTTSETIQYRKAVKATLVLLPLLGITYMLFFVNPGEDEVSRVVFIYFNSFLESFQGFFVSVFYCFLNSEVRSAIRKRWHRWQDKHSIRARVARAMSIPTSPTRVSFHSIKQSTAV

[2] = biological target: human corticotropin-releasing factor 2a (CRF2a receptor) (human), Q13324; experiment: cell-based or functional assay
Chain of human corticotropin-releasing factor 2a (CRF2a receptor) (human), Q13324 (Q13324 20-411): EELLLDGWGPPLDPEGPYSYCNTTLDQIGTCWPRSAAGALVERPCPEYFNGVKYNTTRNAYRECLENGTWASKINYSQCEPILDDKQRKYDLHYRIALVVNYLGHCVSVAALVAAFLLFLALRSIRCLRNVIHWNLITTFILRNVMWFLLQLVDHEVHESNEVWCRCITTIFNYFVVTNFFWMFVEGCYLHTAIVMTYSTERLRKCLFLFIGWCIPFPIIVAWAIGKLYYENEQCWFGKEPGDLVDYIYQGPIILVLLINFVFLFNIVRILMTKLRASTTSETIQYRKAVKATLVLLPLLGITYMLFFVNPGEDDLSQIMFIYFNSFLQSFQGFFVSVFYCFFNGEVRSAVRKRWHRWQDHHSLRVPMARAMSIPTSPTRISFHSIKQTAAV

Binder | EC50 [1] [nM] | Emax (% I) [1] [%] | EC50 [nM] (cAMP) [2]
B1 | 100 | 22 | –
B2 | 25.3 | 53 | –
B3 | – | 0 | –
B4 | > 250 | 24 | –
B5 | – | – | 0.16
B6 | > 250 | 24 | –
B7 | – | 11 | –
